Laboratory results taken from paper doi:10.1101/498865.
Where two headings read alike, the source gives them in different places.

Tests used:
Assay in all cases: other fluorescence titration
[1] = molecular target: CyPet-Myo1^IQ12-YPet FRET reporter protein (S. pombe)
[2] = molecular target: CyPet-Myo1^IQ1-YPet FRET reporter protein (S. pombe)
[3] = molecular target: CyPet-Myo1^IQ12-YPet FRET reporter protein (S. pombe); remark: listed apart in the source
[4] = molecular target: CyPet-Myo1^IQ12-S742D-YPet FRET reporter protein (S. pombe)
[5] = molecular target: CyPet-Myo1^IQ1-YPet FRET reporter protein (S. pombe); remark: listed apart in the source

Chain of Cam1 (fission yeast calmodulin), amino-terminally acetylated (P05933 whole entry): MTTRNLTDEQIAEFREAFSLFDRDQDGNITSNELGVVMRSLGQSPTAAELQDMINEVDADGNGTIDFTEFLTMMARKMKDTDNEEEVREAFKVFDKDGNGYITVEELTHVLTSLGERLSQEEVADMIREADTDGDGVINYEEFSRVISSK

| KD of the first binding event [1] [nM] | KD of the second binding event [1] [nM] | Kd [2] [nM] | KD of the phase with 70% of the signal change [3] [nM] | stoichiometry N [3] | Kd [4] [nM] | stoichiometry N [4] | Kd [5] [nM] | Molecule |
| --- | --- | --- | --- | --- | --- | --- | --- | --- |
| < 100 | 680 | < 100 | – | – | – | – | – | Cam1 (fission yeast calmodulin), amino-terminally acetylated (from UniProt P05933 1-150) (natural protein) |
| – | – | – | 1100 | 2 | 250 | 1 | 400 | Cam2 (fission yeast calmodulin-like protein) (natural protein) MPASKEQTDEMKEAFVLYDIDKDGLIPTSHVGSVLRSLGINVTDAELAKLSNELGDAIDEKKFMSFVSNKLRETESEEEYIKAFRVFDKDNSGYIETAKFADYMKTLGEKLSDNEVQLMVQEADPTNSGSFDYYDFVQRIMAK |
